Assay results from US20090196872A1 (KIRIN BEER, published 2009).

T1: OVA (UniProt P01012 2-386)
T1 construct: also called ovalbumin
T1 sequence: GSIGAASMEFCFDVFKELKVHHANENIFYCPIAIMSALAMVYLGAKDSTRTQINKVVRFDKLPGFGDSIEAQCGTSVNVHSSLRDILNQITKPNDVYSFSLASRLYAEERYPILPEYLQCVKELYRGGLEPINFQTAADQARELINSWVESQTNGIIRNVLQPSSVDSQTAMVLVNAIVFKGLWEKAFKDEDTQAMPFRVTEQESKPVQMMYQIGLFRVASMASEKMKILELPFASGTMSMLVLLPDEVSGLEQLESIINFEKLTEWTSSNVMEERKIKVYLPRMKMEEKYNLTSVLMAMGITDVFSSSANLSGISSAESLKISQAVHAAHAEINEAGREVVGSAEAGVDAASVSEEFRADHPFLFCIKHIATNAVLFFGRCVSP


What was measured:
[1] = target: M2GHTGKS peptide (influenza A virus); experiment: peptide ELISA
Experimental: (§1) ELISA: Antibody titers and antibody specificity as well as antibody production by hybridomas were determined by ELISA. […] After washing twice with PBS/0.1% Tween 20, plates were blocked with PBS/1% BSA (Sigma, St. Louis, Mo.) at 37° C. for 30 min., the antibody or serum was added to the wells and the plates were incubated at 37° C. for 1 hr. After washing four times, diluted HRP conjugated goat anti-human Immunoglobulin gamma chain specific antibody (Jackson Immunoresearch Laboratory, West Grove, Pa.) was added to the wells and incubated for 1 hr at 37° C. After washing four times, TMB substrate solution (DAKO, CA) was added and incubated for 30 min at room temperature. The optical density at 450 nm was measured by a microplate reader.

[2] = target: M2EG peptide (influenza A virus); experiment: peptide ELISA, grade relative to wild-type M2
Experimental: as §1

[3] = target: M2LGS peptide (influenza A virus); experiment: peptide ELISA, grade relative to wild-type M2
Experimental: as §1

[4] = target: M2HTGEKS peptide (influenza A virus); experiment: peptide ELISA, grade relative to wild-type M2
Experimental: as §1

[5] = target: M2TDGEKS peptide (influenza A virus); experiment: peptide ELISA, grade relative to wild-type M2
Experimental: as §1

[6] = target: M2TGS peptide (influenza A virus); experiment: peptide ELISA, grade relative to wild-type M2
Experimental: as §1

[7] = target: M2TGEK peptide (influenza A virus); experiment: peptide ELISA, grade relative to wild-type M2
Experimental: as §1

[8] = target: M2KGENS peptide (influenza A virus); experiment: peptide ELISA, grade relative to wild-type M2
Experimental: as §1

[9] = target: T2, bovine serum albumin (bovine, UniProt P02769 25-607); experiment: ELISA; positive = more than 2-fold OD450 of control
T2 construct: carrier for immunization

[10] = target: T1, OVA; experiment: as above
[11] = target: T2, bovine serum albumin; experiment: ELISA

T2 sequence (P02769 25-607 limits assumed): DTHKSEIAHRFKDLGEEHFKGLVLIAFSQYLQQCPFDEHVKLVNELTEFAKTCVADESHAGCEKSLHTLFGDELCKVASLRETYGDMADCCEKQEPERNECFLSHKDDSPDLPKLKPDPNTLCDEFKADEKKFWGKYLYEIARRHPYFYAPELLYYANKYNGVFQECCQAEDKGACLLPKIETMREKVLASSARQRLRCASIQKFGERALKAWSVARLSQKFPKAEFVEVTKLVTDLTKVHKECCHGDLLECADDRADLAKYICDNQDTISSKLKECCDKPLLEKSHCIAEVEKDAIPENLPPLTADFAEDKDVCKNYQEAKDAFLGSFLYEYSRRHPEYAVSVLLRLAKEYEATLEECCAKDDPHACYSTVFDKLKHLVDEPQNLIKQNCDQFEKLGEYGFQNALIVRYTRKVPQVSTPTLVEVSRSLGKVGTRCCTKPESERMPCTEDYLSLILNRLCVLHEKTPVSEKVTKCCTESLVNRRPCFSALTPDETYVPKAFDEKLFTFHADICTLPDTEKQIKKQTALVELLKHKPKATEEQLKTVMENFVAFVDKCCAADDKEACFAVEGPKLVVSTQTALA

Binder	binding result [1]	binding result [2]	binding result [3]	binding result [4]	binding result [5]	binding result [6]	binding result [7]	binding result [8]	binding result [9]	binding result [10]	binding result [11]
human anti-M2 monoclonal antibody no. Z3G1 (recombinant IgG1 type Z3, CHO; ATCC PTA-5967) (antibody, V domains shown) VH: QVQLVQSGAEVKKPGASVKVSCKASGYTFTSYGISWVRQAPGQGLEWMGWISAYNGNTNYAQKLQGRVTMTTDTSTSTAYMELRSLRSDDTAVYYCARAAAGGYFQHWGQGTLVTVSS VL: not shown	no binding (tested: <10% of binding to wild-type M2 peptide)	binds	binds	binds	binds	binds	binds	binds	no binding	no binding	–
human anti-M2 antibody Z3 (original, IgG3, hybridoma 113Z-3) (antibody, V domains shown) VH: QVQLVQSGAEVKKPGASVKVSCKASGYTFTSYGISWVRQAPGQGLEWMGWISAYNGNTNYAQKLQGRVTMTTDTSTSTAYMELRSLRSDDTAVYYCARAAAGGYFQHWGQGTLVTVSS VL: not shown	–	–	–	–	–	–	–	–	–	–	no binding
